Reference: patent US20180155406A1 (Sanofi, published 2018)
Numbered stars: 1 amine (or outer) side, 2 acyl side, 3 side chain; on linkers, the order of the positions; unused ones are H or OH. Square brackets hold non-standard residues; d marks the D form. Side chains are listed from the residue outwards. Ends that are not written are not given here. * marks the point of attachment. γGlu = O=C(O)[C@H](CCC(=O)[*:2])N[*:1]; Stearoyl = CCCCCCCCCCCCCCCCCC(=O)*; Palmitoyl = CCCCCCCCCCCCCCCC(=O)*; gAAA = not defined here; AEEA = NCCOCCOCC(=O)O; Aib = CC(C)(N)C(=O)O

T1: human GIP receptor (human, UniProt P48546 22-466)
T1 sequence (looked up): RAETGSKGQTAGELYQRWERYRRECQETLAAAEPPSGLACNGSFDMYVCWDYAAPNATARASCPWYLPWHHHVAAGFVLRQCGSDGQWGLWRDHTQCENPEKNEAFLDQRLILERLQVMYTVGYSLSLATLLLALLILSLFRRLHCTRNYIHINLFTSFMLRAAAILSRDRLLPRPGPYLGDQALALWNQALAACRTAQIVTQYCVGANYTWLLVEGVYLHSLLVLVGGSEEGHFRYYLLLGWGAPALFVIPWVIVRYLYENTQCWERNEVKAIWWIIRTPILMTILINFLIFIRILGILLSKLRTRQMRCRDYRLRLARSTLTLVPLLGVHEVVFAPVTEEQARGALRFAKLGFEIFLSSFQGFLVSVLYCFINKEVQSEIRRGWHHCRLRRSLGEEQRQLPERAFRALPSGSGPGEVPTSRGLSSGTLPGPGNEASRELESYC

B1: SEQ ID NO: 21 (peptide)
peptide: H[Aib]HGTFTSDLSKLK([γGlu-Stearoyl])EEQRQKEFIEWLKAGGPPS[Aib]KPPPK-NH2
modifications: N-terminus assumed
SMILES: CCCCCCCCCCCCCCCCCC(=O)N[C@@H](CCC(=O)NCCCC[C@H](NC(=O)[C@H](CC(C)C)NC(=O)[C@H](CCCCN)NC(=O)[C@H](CO)NC(=O)[C@H](CC(C)C)NC(=O)[C@H](CC(=O)O)NC(=O)[C@H](CO)NC(=O)[C@@H](NC(=O)[C@H](Cc1ccccc1)NC(=O)[C@@H](NC(=O)CNC(=O)[C@H](Cc1c[nH]cn1)NC(=O)C(C)(C)NC(=O)[C@@H](N)Cc1c[nH]cn1)[C@@H](C)O)[C@@H](C)O)C(=O)N[C@@H](CCC(=O)O)C(=O)N[C@@H](CCC(=O)O)C(=O)N[C@@H](CCC(N)=O)C(=O)N[C@@H](CCCNC(=N)N)C(=O)N[C@@H](CCC(N)=O)C(=O)N[C@@H](CCCCN)C(=O)N[C@@H](CCC(=O)O)C(=O)N[C@@H](Cc1ccccc1)C(=O)N[C@H](C(=O)N[C@@H](CCC(=O)O)C(=O)N[C@@H](Cc1c[nH]c2ccccc12)C(=O)N[C@@H](CC(C)C)C(=O)N[C@@H](CCCCN)C(=O)N[C@@H](C)C(=O)NCC(=O)NCC(=O)N1CCC[C@H]1C(=O)N1CCC[C@H]1C(=O)N[C@@H](CO)C(=O)NC(C)(C)C(=O)N[C@@H](CCCCN)C(=O)N1CCC[C@H]1C(=O)N1CCC[C@H]1C(=O)N1CCC[C@H]1C(=O)N[C@@H](CCCCN)C(N)=O)[C@@H](C)CC)C(=O)O

How the values were obtained:
Experiment in all cases: cell-based or functional assay
[1] = molecular target: human GLP-1 receptor (human) (UniProt P43220)
human GLP-1 receptor (human), sequence (P43220 24-463): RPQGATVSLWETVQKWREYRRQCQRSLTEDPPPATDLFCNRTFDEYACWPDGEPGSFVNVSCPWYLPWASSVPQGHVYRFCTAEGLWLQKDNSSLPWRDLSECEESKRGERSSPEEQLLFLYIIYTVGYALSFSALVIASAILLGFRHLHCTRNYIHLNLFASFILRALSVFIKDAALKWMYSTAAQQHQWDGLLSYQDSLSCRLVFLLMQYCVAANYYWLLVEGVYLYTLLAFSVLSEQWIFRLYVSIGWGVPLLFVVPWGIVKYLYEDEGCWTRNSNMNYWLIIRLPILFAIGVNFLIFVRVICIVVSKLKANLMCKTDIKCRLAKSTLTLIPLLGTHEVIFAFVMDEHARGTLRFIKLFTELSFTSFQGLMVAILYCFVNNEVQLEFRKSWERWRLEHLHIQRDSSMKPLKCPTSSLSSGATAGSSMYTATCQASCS

[2] = molecular target: human glucagon receptor (human) (UniProt P47871)
human glucagon receptor (human), sequence (P47871 26-477): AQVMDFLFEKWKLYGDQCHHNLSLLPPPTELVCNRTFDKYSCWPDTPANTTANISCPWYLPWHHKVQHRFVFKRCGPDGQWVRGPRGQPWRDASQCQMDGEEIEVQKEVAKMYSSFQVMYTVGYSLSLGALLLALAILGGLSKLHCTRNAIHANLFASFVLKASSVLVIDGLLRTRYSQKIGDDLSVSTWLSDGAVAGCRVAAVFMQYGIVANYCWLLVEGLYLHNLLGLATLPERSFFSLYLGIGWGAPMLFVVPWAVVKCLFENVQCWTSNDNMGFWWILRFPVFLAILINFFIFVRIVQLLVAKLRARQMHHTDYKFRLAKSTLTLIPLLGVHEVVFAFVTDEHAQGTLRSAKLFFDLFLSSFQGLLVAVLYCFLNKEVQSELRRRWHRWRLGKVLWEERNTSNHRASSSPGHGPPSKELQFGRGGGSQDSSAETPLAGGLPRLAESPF

[3] = molecular target: T2, human glucagon receptor (human, UniProt P47871 26-477)
T2 sequence (P47871 26-477): as above

[4] = molecular target: human GLP-1 receptor (human, UniProt P43220 24-463)
[5] = molecular target: T1, human GIP receptor
[6] = molecular target: T2, human glucagon receptor; remark: listed apart in the source

Molecule | EC50 hGLP-1 R [pM] (cAMP formation) [1] | EC50 hGlucagon R [pM] (cAMP formation) [2] | EC50 hGlucagon R (cAMP formation) [3] | EC50 hGLP-1R (cAMP formation) [4] | EC50 hGIP R (cAMP formation) [5] | EC50 hGlucagon-R [6]
exendin-4 (peptide) | 0.4 pM | > 1e+07 pM |  |  |  | 
B1 |  |  | 1.9 pM | 3.4 pM | 2.6 pM | 
HXQGTFTSDLSKQKDEQRAKEFIEWLKAGGPSSGAPPPS (Aib at 2; Lys14 side chain acylated with gGlu-Stea; C-terminal amide) [SEQ ID NO: 28] |  |  |  |  |  | 1.9 pM
H[Aib]HGTFTSDLSKLK([γGlu-AEEA-gAAA-Palmitoyl])EEQRQKEFIEWLKA[dA]GHPS[Aib]KPPPK-NH2 (reading uncertain) [SEQ ID NO: 23] |  |  | 6.8 pM | 1.4 pM | 1.5 pM | 
H[Aib]HGTFTSDLSKLK([γGlu-AEEA-gAAA-Palmitoyl])EEQRQKEFIEWLKAGGHPS[Aib]KPPPK-NH2 (reading uncertain) [SEQ ID NO: 22] |  |  | 5.9 pM | 1 pM | 1.1 pM | 
